Article PMC7334433, “Enzymatic characterization and structure-function relationship of two chitinases, LmChiA and LmChiB, from Listeria monocytogenes” (Heliyon, 2020)

Test system: CC(=O)N[C@H]1[C@H](Oc2ccc([N+](=O)[O-])cc2)O[C@H](CO)[C@@H](O[C@@H]2O[C@H](CO)[C@@H](O)[C@H](O)[C@H]2NC(C)=O)[C@@H]1O
Experiment: purified protein
Settings: 20 mM sodium phosphate pH 7.4, 37 °C (standard assay), substrate 0.05–0.45 mM

Substance: LmChiB (Listeria monocytogenes EGD-e)
- Km: 375 ± 27 µM
- kcat: 72.1 ± 1.4 s⁻¹
- kcat/Km: 190000 M⁻¹ s⁻¹

Substance: LmChiA (Listeria monocytogenes EGD-e)
- Km: 1622 ± 13 µM
- kcat: 33.6 ± 1 s⁻¹
- kcat/Km: 20000 M⁻¹ s⁻¹
